According to patent publication US20030157554A1 (published 2003):
Blank lines part the entries; values can stand above or below the binder they belong to.

How the values were obtained:
[1] = target: T1, S100B-1 (human, UniProt P04271 1-92); assay: Y2H, baits tested against each other
T1 construct: Full-length bait; also called full length S100B
T1 sequence (looked up): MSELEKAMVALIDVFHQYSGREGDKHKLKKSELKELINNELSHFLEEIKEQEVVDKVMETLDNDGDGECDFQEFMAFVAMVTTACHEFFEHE

[2] = target: T2, S100A1-1 (human, UniProt P23297 1-94); assay: Y2H, baits tested against each other
T2 construct: Full-length bait; also called full length S100A1
T2 sequence (looked up): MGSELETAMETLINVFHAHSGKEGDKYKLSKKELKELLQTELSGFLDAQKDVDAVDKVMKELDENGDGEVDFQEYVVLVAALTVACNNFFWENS

[3] = target: the molecule itself; assay: Y2H, baits tested against each other
[4] = target: T3, S100A9 (Genbank ID: M26311) (human, UniProt P06702 1-114); assay: Y2H 1x1 mating, binder AD fusion, target BD fusion
T3 construct: range 1-114; Prey from liver and muscle libraries
T3 sequence (looked up): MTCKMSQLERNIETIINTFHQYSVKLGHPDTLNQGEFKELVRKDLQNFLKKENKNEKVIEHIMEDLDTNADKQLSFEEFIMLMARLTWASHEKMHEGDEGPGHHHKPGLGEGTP

[5] = target: S100A6 (Genbank ID: M14300) (human, UniProt P06703 1-90); assay: Y2H 1x1 mating, binder AD fusion, target BD fusion
[6] = target: T4, STAU (Genbank ID: AF061939) (human, UniProt O95793 6-577); assay: Y2H 1x1 mating, binder AD fusion, target BD fusion
T4 construct: range 6-578; Prey from brain library; also called Staufen
T4 sequence (looked up): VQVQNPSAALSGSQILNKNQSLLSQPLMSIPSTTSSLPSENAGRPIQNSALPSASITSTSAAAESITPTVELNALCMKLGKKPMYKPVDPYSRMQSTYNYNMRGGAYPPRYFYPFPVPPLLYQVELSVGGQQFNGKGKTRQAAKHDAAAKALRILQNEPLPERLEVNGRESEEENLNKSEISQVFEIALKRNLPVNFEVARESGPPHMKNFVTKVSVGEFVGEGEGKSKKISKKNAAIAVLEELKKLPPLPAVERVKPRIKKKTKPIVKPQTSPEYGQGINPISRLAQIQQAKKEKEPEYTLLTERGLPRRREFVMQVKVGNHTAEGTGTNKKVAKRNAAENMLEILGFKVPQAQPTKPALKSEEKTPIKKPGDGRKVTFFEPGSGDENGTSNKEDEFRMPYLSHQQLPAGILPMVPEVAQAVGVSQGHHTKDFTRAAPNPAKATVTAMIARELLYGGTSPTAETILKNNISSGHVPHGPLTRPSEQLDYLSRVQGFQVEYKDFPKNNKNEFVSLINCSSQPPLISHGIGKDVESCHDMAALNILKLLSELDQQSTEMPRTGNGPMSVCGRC

[7] = target: the molecule itself; assay: Y2H 1x1 mating, binder AD fusion, target BD fusion

binding result [1]: no binding | binding result [2]: no binding | binding result [4]: no binding | binding result [5]: no binding
B1: S100B-2 (other, human, UniProt P04271 1-62, looked up)
chain: MSELEKAMVALIDVFHQYSGREGDKHKLKKSELKELINNELSHFLEEIKEQEVVDKVMETLD
notes: Truncated bait; also called truncated S100B
binding result [3]: no binding

binding result [6]: no binding
B2: PPP1R5 (Genbank ID: Y18207) (other, human, UniProt Q9UQK1 1-317, looked up)
chain: MSCTRMIQVLDPRPLTSSVMPVDVAMRLCLAHSPPVKSFLGPYDEFQRRHFVNKLKPLKSCLNIKHKAKSQNDWKCSHNQAKKRVVFADSKGLSLTAIHVFSDLPEEPAWDLQFDLLDLNDISSALKHHEEKNLILDFPQPSTDYLSFRSHFQKNFVCLENCSLQERTVTGTVKVKNVSFEKKVQIRITFDSWKNYTDVDCVYMKNVYGGTDSDTFSFAIDLPPVIPTEQKIEFCISYHANGQVFWDNNDGQNYRIVHVQWKPDGVQTQMAPQDCAFHQTSPKTELESTIFGSPRLASGLFPEWQSWGRMENLASYR
notes: Prey from brain, liver and muscle libraries
binding result [7]: no binding
